Test results as given in US20160168210A1, “DERIVATIVES OF COLLAGEN-BINDING HAIRPIN PEPTIDES” (NATIONAL RESEARCH COUNCIL OF CANADA, priority 2012, published 2016).
Entries after “also recorded” stand apart in the source; their conditions may differ. Where no end group is shown, it is not given here.

Legend:
[1] = In vivo biodistribution by fluorescence imaging in nude mice; set-up: species or system mouse; settings: for fluorescence biodistribution: ~0.25 mg/kg
Method: (§1) Immune-compromised nude mice (20-30 g) and normal Sprague-Dawley rats (250-310 g; Charles River Laboratories, St-Constant, QC, Canada) were acclimated for at least 3 days prior to the start of the study. Animals were housed in microisolator cages and were kept on a 12-hr light/dark cycle with constant temperature and humidity. Food and water were provided ad libitum. Stock solutions of various agents and peptides of this invention were diluted in saline (0.9% sodium chloride) prior to use. Saline formulations of FL4247 were prepared in such a way that similar dose levels were achieved based on the body weight of the experimental animals used for the study (i.e. in mg/kg).
(§2) Of the different methods available, imaging with fluorescently-labeled test compounds is particularly useful for assessing the in vivo biodistribution in real time with live animals. Therefore, the biodistribution of FL4247 was followed over time in two nude mice each for two routes of administration: 1) intravenous (I.V.); and 2) intraperitoneal (I.P.). Another imaging experiment was carried out using a Sprague-Darley rat (Charles River Laboratories, St-Constant, QC, Canada) through a tail-vein (I.V.) administration of an FL4247 solution.
The I.V. injection route depicted similar results in both studies even though the imaging sequence parameters were different (study 1=1 image/2 minutes over 30 minutes; study 2=1 image/5 minutes over 60 minutes).
Similar results were obtained in two studies involving the I.P. route of injection. Different imaging parameters were again used (study 1=1 image/2 minutes over 60 minutes; study 2=1 image/5 minutes over 90 minutes). The I.P. injection of FL4247 led to the accumulation of the compound at the level of the head within 5 minutes. […] The distribution of FL4247 over the entire body is complete within 30 minutes accompanied by a slow accumulation of fluorescence in the bladder region.

[2] = In vivo biodistribution by fluorescence imaging in a normal Sprague-Dawley rat
Method: as §1, §2
The biodistribution was also assessed using one rat in which FL4247 was injected intravenously (I.V.) through the tail vein. To illustrate the capacity for image contrast, only 10% (one tenth or 1/10) of FL4247 was used with the normal rat (FIG. 9C) as compared to the dosage of FL4247 used for imaging vascular injury in venous thrombosis (see FIG. 10). […] Then the fluorescence became more intense in both kidneys for the next 25 minutes and finally the fluorescence appeared in the bladder for the remainder of the experiment time. Although the head was not imaged during this experiment, ex vivo imaging was carried out at the end of the live-animal protocol with the dissected brain, heart, liver and both kidneys. A small amount of fluorescence was detected in the liver and a much stronger signal (about 10 times) was present in both kidneys.

[3] = test system: fibrotic tissues of the lung; experiment: Fluorescence imaging in bleomycin-induced mouse model of pulmonary fibrosis; assay type: in vivo
Text: Tissue localization of the representative compound FL4247 containing a collagen-binding hairpin peptide was further examined using a bleomycin-induced mouse model of pulmonary fibrosis. […] This is accompanied by fluorescence localization into generally inflamed tissues in the oral cavities of these mice, which are induced through either mechanical or contact damages. It can therefore be concluded that FL4247 has an affinity for inflamed/fibrosing tissues in vivo, very likely due to specific binding of the collagen-responsive hairpin moiety to newly-secreted collagen enriched in these tissue environments.
Specifically, pulmonary instillation of bleomysin was used to initiate pulmonary fibrosis in a mouse model using immune-compromised nude mice. The objective was to determine if the fluorescent FL4247 compound would localize in fibrotic tissues of the lung induced by bleomycin. […] The imaging data thus obtained confirm that: 1) the fluorescence detected in vivo in the thorax region was indeed coming from the lung and from the heart; and 2) since no fluorescence was detected in the lung and heart of the control mouse, the signal detected in the fibrotic mouse injected with FL4247 is very likely a result of different lung tissues induced by fibrosis. […]

[4] = test system: abdominal vena cava injured by FeCl3
Text: The application of ferric chloride on venous and arterial vessels was therefore the method used to produce the inflamed vasculature in the animal model. The carotid artery (arterial model) and the abdominal vena cava (venous model) were the chosen vessels for the imaging experiments with injured blood vessels undergong thrombosis.
The FeCl3 rat venous model of thrombosis was generated as described (Wang 2005) with some modifications. Briefly, rats were anesthetized with a 2.5% isoflurane/oxygen mixture and placed on a heat source (35-37° C.). The vena cava was then exposed via a midline incision and the region between the renal and iliolumbar veins was isolated. One minute after drug administration, a piece of filter paper (Gel Blot Paper, GB003, Whatman, Piscataway, N.J., USA; 7 mm diameter) saturated with 10% FeCl3 (EMD Chemicals Inc., Gibbstown, N.J., USA) was placed on the exposed surface of the vena cava and incubated for 3.5 minutes. During the application of FeCl3, the abdominal region was covered with aluminum foil. At the end of the incubation period, the filter paper was removed and the exposed viscera covered with a saline-soaked gauze.
In these imaging experiments, there were also a 30-minute waiting time after introduction of FeCl3 to the exposed vena cava to ensure the development of substantial vascular injury and the deposition of a thrombus.

rat-tail collagen type I = rat-tail collagen type I (Rattus norvegicus, UniProt P02454+P02466); experiment: Retention of fluorescent peptide by collagen hydrogels, fluorescence imaging; assay type: binding; set-up: used together with rat-tail collagen (type I); from tissue; host or cells: rat tail; settings: pre-formed or pre-mixed collagen hydrogel disks
Chain of rat-tail collagen type I (P02466 86-1125): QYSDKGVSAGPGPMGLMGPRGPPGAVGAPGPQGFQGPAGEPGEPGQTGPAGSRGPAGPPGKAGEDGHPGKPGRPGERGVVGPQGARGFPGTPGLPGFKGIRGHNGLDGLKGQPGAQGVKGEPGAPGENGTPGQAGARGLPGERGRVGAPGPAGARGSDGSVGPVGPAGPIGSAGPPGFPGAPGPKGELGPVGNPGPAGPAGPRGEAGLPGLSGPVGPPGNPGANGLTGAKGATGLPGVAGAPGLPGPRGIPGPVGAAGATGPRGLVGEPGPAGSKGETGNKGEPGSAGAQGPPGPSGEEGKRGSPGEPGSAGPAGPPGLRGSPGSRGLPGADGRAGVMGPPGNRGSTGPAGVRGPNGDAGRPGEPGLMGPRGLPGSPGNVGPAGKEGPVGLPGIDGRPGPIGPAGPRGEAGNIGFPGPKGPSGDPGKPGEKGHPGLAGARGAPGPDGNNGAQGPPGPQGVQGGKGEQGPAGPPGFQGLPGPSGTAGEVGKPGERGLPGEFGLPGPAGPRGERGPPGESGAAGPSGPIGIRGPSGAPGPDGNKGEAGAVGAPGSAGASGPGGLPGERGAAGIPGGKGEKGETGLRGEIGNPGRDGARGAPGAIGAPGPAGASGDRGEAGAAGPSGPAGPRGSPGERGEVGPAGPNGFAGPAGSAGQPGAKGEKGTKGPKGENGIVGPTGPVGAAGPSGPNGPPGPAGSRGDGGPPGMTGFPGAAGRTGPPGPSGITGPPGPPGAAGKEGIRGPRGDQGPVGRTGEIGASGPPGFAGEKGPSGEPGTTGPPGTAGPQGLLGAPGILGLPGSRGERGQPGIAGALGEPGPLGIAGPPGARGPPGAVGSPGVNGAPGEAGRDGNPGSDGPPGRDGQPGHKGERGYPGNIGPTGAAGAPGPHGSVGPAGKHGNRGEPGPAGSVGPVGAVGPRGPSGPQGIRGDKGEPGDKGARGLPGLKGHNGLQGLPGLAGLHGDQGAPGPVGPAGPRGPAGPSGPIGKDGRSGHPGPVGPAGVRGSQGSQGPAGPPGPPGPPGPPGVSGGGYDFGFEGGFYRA
Chain of rat-tail collagen type I (P02454 152-1207): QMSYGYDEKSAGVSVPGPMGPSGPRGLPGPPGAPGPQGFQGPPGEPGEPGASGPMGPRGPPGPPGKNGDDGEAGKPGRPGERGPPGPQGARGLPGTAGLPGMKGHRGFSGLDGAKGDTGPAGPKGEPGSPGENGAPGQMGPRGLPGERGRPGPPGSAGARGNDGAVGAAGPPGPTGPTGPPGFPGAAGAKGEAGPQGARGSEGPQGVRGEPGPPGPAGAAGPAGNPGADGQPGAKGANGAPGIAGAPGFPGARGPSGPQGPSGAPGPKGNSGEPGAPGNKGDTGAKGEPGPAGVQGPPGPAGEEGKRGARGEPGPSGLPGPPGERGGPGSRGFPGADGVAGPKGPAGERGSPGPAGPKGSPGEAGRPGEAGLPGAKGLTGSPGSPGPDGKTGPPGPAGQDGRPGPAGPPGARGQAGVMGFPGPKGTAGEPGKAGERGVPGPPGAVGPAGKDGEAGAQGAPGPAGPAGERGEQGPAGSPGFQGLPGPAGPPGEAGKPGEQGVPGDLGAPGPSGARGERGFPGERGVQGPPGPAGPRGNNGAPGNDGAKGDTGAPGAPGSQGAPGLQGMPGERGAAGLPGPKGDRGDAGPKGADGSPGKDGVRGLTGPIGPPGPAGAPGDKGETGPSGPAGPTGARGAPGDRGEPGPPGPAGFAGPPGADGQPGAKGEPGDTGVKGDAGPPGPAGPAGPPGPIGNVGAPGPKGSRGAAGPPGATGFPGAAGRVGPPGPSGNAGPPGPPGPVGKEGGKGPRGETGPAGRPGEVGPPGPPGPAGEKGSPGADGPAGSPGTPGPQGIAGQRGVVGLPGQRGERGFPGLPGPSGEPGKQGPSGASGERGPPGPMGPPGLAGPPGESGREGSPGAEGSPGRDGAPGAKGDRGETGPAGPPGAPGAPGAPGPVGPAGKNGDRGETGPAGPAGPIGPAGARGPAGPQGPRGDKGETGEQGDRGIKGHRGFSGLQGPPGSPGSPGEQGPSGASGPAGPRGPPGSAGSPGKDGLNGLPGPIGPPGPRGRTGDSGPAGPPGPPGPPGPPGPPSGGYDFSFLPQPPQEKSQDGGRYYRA
Text: Peptide P4247 conjugated to a fluorescent probe, i.e. FL4247 (Table 5), was therefore used together with rat-tail collagen (type I) to assess the binding capacity of CBLH peptides to collagen and to illustrate the potential applications of collagen hydrogels formulated with compounds of this invention. The fluorescent probe, HiLyte Fluor750 (AnaSpec, California) was selected with a maximum absorption at an optical wavelength of 750 nm and with a maximum fluorescence emission at 800 nm. Therefore, the intensity of fluorescence emissions would also be optimal for in vivo imaging of tissue locations with a differential enrichment of the injected fluorescent compound (see Examples 8-10). […] For this first experiment, FL4247 in a hydrogel solution were loaded onto the pre-formed collagen hydrogels and molecular diffusion off FL4247 was followed by fluorescence imaging (FIG. 8A, left image). […] Such FL4247-collagen hydrogel preparations (FIG. 8A, right) were then submerged in a large volume of buffer solutions (e.g. the PBS) and the degree of FL4247 retention by the hydrogels were followed by fluorescence imaging (FIG. 8B). […] However, the observed fluorescence intensity was still restricted close to the center of the hydrogel disks 30 minutes after the FL4247 solution was applied (FIG. 8A, left). […]

For “IRFTDGEWTWDDATKTWTWTEGGC-Fluor750 (not fully specified (C-terminus); printed as IRFTDGEWTWDDATKTWTWTEGGC-Fluor750; also: HiLyte Fluor750 conjugate) [FL4247, peptide P4247 conjugated to fluorescent probe HiLyte Fluor750]”, the “time to accumulation at the level of the head” value ([1]; I.P.) was no more than 5 min, the “time to complete distribution over the entire body” value ([1]; I.P.) was no more than 30 min and the fluorescence biodistribution ([1]; I.P.) was “far inferior over time compared to the I.V. injection; also recorded: no specific local accumulation of FL4247 was noted”. The fluorescence biodistribution ([1]; I.V.) was “accumulated rapidly in the head region followed by a slow decrease of fluorescent intensity over time; also recorded: accumulated in the bladder; also recorded: no other organs appeared to accumulate or retain FL4247”, the “fluorescence biodistribution (live and ex vivo imaging)” value ([2]; I.V. tail vein, 0.025 mg/kg) was “differential accumulation in the head region, in the kidneys and in the bladder; also recorded: Nothing was detected in the brain and heart organs” and the “ex vivo signal in both kidneys relative to liver” value ([2]; I.V., end of live-animal protocol) was “about 10 times”. For the same substance, the “decrease of liver fluorescence” value ([2]; I.V., within 5 minutes) was 10 times, the “mice with I.V. injection showing marked fluorescence in the lung” value ([3]; I.V.) was “two out of three mice” and the “fluorescence retention in fibrotic lung” value ([3]; tail vein injection, ~0.5 mg/kg) was “high degree of FL4247 fluorescence was retained in the area of the lung”. The “fluorescence at the injured abdominal vena cava” value ([4]; I.V. 30 minutes after FeCl3 application, ~0.2 mg/kg) was “strong fluorescence signal”, the “signal in dissected thrombus weaker than along injured vasculature” value ([4]; ex vivo imaging, I.V. 30 minutes after FeCl3) was “about 3 times” and the clearance ([4]; rat venous thrombosis model, I.V.) was “rapid clearance of FL4247 via the kidneys to the bladder”. For the same substance, the “diffusion in / retention by collagen hydrogels (fluorescence)” value (rat-tail collagen type I) was “significantly retarded the diffusion of FL4247 in the gel matrix; also recorded: could resist outward diffusion into buffer solutions”.
